Test results reported in patent US10689452 (UNIVERSIT T STUTTGART, dated 2020).

Assays:
[1] = molecular target: T1, human TNFR1-Fc fusion protein (human, UniProt P19438 29-211); test: QCM, human TNFR1-Fc immobilised, low receptor density (48 Hz)
T1 construct: range 29-211; Made in stably transfected HEK293 cells; coated on ELISA plates or immobilised on QCM chips; also called huTNFR1-Fc; human TNFR-Fc; not shown: Fc part from vector pSecTagL1-Fc
T1 sequence (looked up): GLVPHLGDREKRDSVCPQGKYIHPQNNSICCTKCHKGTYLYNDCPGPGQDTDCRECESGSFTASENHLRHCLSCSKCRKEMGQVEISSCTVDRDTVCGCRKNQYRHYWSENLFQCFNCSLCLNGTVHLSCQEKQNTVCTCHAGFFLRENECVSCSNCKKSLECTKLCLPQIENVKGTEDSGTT
Protocol: (§1) Real-time binding dynamics in protein-protein interactions were determined by quartz crystal microbalance measurements (A-100 C-Fast or Cell-200 C-Fast, Attana, Stockholm, Sweden). One of the binding partners (ligand, e.g. TNFR1-Fc) was chemically immobilized on a carboxyl sensor chip according to the manufacturer's protocol at different densities (nearly 200 Hz in the case of saturating conditions to confirm previously published results and 50-100 Hz, in particular at about 50 Hz, to establish conditions of lower receptor density, better resembling the situation on the cellular surface). Binding experiments were performed with samples (analyte) diluted in PBST (PBS, 0.1% Tween 20) at pH 7.4 with a flow rate of 25 µl/min at 37° C. The chip was regenerated with 25 µl 5 mM NaOH or 20 mM glycine, pH 2.0. Every third measurement, an injection of running buffer was measured which was subtracted from the binding curve. Data were collected using the software provided by Attana for the particular device and analyzed by Attaché Office Evaluation software (Attana, Stockholm, Sweden) and TraceDrawe (ridgview instruments, Vange, Sweden).

[2] = molecular target: T2, mouse TNFR1-Fc fusion protein (mouse, UniProt P25118 30-212); test: ELISA on coated receptor-Fc fusion proteins, one antibody concentration (not given on the sheet)
T2 construct: range 30-212; also called moR1; not shown: Fc part from vector pSecTagL1-Fc
T2 sequence (looked up): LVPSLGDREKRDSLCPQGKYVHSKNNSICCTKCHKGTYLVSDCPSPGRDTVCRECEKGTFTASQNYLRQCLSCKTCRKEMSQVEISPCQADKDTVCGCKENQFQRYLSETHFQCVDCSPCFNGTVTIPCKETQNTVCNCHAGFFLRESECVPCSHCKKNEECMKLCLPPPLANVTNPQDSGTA
Protocol: (§2) FIG. 12. Species selectivity of scFv13.7 derivatives. […] Presented are mean and SD of two individual experiments.
(§3) Microtiter plates were coated with 100 µl of the indicated protein (1 µg/ml in PBS, see Table 3.3) and incubated at 4° C. over night. The residual binding sites were blocked with 2% MPBS (skim milk in PBS, 200 µl per well) at room temperature for 2 hours and subsequently washed twice with PBS. 100 µl of the samples diluted in 2% MPBS were incubated at room temperature for 1 hour prior to the last incubation step with 100 µl of the HRP conjugated detection antibodies in 2% MPBS. In the case of competition experiments, both analyzed protein samples were prepared individually (either titrated or diluted to a single concentration) and mixed before they were applied to the plate. Bound protein was detected with 100 µl TMB substrate solution, the HRP-reaction was stopped by the addition of 50 µl 1 M H2SO4 and the absorption at the wavelength of 450 nm was measured using the Infinite microtiter plate reader (TECAN, Maennedorf, Switzerland). Between each incubation step and in advance of the detection, the plates were washed three times with PBST and twice with PBS.

[3] = molecular target: T3, mouse TNFR2-Fc fusion protein (mouse, UniProt P25119 23-258); test: as above
T3 construct: range 23-258; not shown: Fc part from vector pSecTagL1-Fc
T3 sequence (looked up): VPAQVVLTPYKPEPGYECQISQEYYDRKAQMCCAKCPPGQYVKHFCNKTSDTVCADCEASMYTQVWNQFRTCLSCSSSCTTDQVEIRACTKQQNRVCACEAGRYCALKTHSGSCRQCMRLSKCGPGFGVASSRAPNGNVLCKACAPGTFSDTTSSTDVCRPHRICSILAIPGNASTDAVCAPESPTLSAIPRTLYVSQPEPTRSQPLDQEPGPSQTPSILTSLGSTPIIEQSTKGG
Protocol: as §2, §3

[4] = molecular target: T1, human TNFR1-Fc fusion protein; test: QCM, human TNFR1-Fc, moderate receptor density (86 Hz), biphasic fit, KD2 (high-affinity part)
Protocol: as §1

[5] = molecular target: T1, human TNFR1-Fc fusion protein; test: QCM, human TNFR1-Fc, moderate receptor density (86 Hz), biphasic fit, koff2 (high-affinity part)
Protocol: as §1

[6] = molecular target: T4, human TNFR1 on cells (HT1080, HeLa, Kym-1) (human, UniProt P19438 30-455); test: cell-based or functional assay
T4 sequence (looked up): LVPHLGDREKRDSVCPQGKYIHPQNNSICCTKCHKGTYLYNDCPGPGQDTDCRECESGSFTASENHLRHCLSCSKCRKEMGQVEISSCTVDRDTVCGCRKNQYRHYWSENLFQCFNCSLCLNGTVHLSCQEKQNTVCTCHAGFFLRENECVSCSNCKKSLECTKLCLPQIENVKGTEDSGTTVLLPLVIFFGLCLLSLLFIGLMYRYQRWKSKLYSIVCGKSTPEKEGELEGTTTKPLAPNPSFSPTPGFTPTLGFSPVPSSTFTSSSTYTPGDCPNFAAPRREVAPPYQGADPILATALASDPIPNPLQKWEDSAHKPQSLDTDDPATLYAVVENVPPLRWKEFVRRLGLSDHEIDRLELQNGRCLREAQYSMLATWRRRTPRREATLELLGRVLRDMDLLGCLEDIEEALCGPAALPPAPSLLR

[7] = molecular target: T1, human TNFR1-Fc fusion protein; test: ELISA on coated human TNFR1-Fc, reference curve next to Fv13.7-Fckih0DS
Protocol: as §3

[8] = molecular target: T1, human TNFR1-Fc fusion protein; test: QCM, human TNFR1-Fc, moderate receptor density (86 Hz), biphasic fit, kon2 (high-affinity part)
Protocol: as §1

Factor (KD low density chip, ATROSAB against H398) [1]: 2.8 fold
Factor (koff low density chip, ATROSAB against H398) [1]: 7.6 fold
Kd [1]: 4.5 nM
fold faster kon than H398 [1]: 2.6 fold
koff [1]: 0.0047 s⁻¹
binding result [2]: no binding
binding result [3]: no binding
Kd [4]: 0.38 nM
koff [5]: 0.000407 s⁻¹
IC50, IL-6 (nM); inhibition of the response of HeLa cells to 0.1 nM TNF [6]: 179 nM
IC50, IL-8 (nM); inhibition of the response of HT1080 cells to 0.1 nM TNF [6]: 118 nM
IL-6 release (pg/ml), HeLa cells [6]: 231 pg/mL
IL-8 release (pg/ml), HT1080 cells [6]: 240 pg/mL
EC50 (read off the curve) [7]: ~0.2 nM
kon [8]: 1.06e+06 M⁻¹ s⁻¹
B1: ATROSAB (antibody, IgG1, V domains shown)
VH: QVQLVQSGAEVKKPGSSVKVSCKASGYTFTDFYINWVRQAPGQGLEWIGEIYPYSGHAYYNEKFKARVTITADKSTSTAYMELSSLRSEDTAVYYCARWDFLDYWGQGTTVTVSS
VL: DIVMTQSPLSLPVTPGEPASISCRSSQSLLHSNGNTYLHWYLQKPGQSPQLLIYTVSNRFSGVPDRFSGSGSGTDFTLKISRVEAEDVGVYYCSQSTHVPYTFGGGTKVEIKR
notes: Humanized full-length IgG1 with a modified Fc region deficient in mediating effector functions (made according to WO2012035141); also called full length IgG ATROSAB
IC50, Cytotox (nM); inhibition of Kym-1 cell death by 0.01 nM TNF [6]: 24 nM
